Reference: US20080038735A1

Molecular target: TNFa, P01375
Assay: not stated (told as a known affinity); low affinity dAb, known affinity, lower bound
Settings: remark: other sources report otherwise

Sequence of TNFa, P01375 (P01375 77-233 limits assumed): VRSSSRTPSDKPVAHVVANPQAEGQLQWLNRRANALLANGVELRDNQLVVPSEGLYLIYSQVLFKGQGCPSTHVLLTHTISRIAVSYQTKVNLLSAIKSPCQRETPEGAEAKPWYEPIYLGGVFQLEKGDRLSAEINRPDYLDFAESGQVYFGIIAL

- Kd: > 5 µM
B1: Vk(TAR1-5) (protein)
VL: DIQMTQSPSSLSASVGDRVTITCRASQSIFMNLLWYQQKPGKAPKLLIYNASVLQSGVPSRFSGSGSGTDFTLTISSLQPEDFATYYCQQVVWRPFTFGQGTKVEIKR
modifications: here or on the partner: biotinylated (sites not given)
